Substitutions are numbered along the chain they refer to.
T1: fHbp mutant 0016 (Neisseria meningitidis, fHbp v1.1 mutant, point mutant)
T1 chain: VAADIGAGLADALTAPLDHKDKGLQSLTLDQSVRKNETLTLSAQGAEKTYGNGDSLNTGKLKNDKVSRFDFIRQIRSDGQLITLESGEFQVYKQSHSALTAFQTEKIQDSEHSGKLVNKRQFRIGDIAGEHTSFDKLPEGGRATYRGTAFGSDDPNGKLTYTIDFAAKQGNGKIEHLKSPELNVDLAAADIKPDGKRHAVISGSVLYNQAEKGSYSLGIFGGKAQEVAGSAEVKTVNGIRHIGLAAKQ

T2: factor H binding protein variant 3.28 (Neisseria meningitidis, fHbp variant …)
T2 construct: also called fHbp v3.28; v3.28 Control (0002)
T2 chain: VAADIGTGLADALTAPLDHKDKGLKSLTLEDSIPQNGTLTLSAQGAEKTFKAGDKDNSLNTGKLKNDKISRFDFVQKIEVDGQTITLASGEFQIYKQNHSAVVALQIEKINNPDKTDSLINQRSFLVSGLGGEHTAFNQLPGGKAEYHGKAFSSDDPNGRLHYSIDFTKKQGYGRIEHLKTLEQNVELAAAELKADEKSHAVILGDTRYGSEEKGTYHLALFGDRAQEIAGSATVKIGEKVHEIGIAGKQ

T3: fHbp mutant 0012 (Neisseria meningitidis, fHbp v1.1 mutant, point mutant)
T3 chain: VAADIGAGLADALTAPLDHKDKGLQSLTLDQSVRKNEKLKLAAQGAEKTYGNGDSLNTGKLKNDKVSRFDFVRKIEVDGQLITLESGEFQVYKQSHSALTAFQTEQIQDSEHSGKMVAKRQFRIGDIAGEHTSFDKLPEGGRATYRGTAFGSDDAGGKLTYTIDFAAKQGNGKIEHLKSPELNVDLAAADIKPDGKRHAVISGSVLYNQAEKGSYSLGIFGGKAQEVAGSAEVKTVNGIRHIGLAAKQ

T4: fHbp mutant 0024 (Neisseria meningitidis, fHbp v3.28 …, point mutant)
T4 chain: T2 chain with E239N, K240G, V241I, E243H

T5: fHbp mutant 0018 (Neisseria meningitidis, fHbp v1.1 mutant, point mutant)
T5 chain: T3 chain with K38T, K40T, A42S, Q106K, A155P, G156N

T6: fHbp mutant 0014 (Neisseria meningitidis, fHbp v1.1 mutant, point mutant)
T6 chain: T3 chain with V72I, K74Q, A155P, G156N

T7: fHbp mutant 0015 (Neisseria meningitidis, fHbp v1.1 mutant, point mutant)
T7 chain: T3 chain with Q106K, M116L, A118N, A155P, G156N

T8: fHbp mutant 0017 (Neisseria meningitidis, fHbp v1.1 mutant, point mutant)
T8 chain: T1 chain with I72V, Q74K, R76E, S77V, K106Q

T9: fHbp m000019 (Neisseria meningitidis, fHbp v1.1 …, point mutant)
T9 chain: T3 chain with K38T, K40T, A42S, Q106K, M116L, A118N

B1: mAb 4B3 (human) (antibody, V domains shown)
VH: QVQLVQSGGGLVKPGGSLRLSCAASGFPFSSYYMSWIRQAPGKGLEWVSDINNSGNVKEYADFVKGRLTISRDNVKNSMYLHMNSLRVEDTAVYYCARNRGRFDVWGQGTLVTVSA
VL: EIVMTQSPGTLSLSPGETATLSCRASQMISSPFLAWYQQRRGQAPRLLIYGASTRATDTPDRFRGSGSGTDFILTISRLEPEDFAVYYCQYYDDSPFTFGQGTKLEIK
notes: also called 4B3-2; source: Expi293, purified (MabSelect SuRe, SEC); copies: 2 + 2
B2: mAb 1E6 (human) (antibody, V domains shown)
VH: EVQLVQSGAEVKKPGSSVKVSCKASGGTVIDYPITWVRQAPGQGLEWVGGFVPLFRTSNYGQKFQGRVTITADKSTSTASMELNSLTSEDTAIYYCARGDTAMGPFDYWGQGTLVTVSS
VL: SYVLTQPPSLSVAPGKTATLTCGGNNIAGKTVHWYQQRPGQAPVLVISYDSDRPSGIPERFSGSNSANTATLTISRVEAGDEADYYCQVWDRNSDHWVFGGGTKLTVL
notes: source: Expi293, purified (MabSelect SuRe, SEC); copies: 2 + 2

Assays:
Assay in all cases: BLI
Conditions in all cases: both partners purified
fHbp mutant 0016 = target: T1, fHbp mutant 0016
[1] = target: T2, factor H binding protein variant 3.28
fHbp mutant 0012 = target: T3, fHbp mutant 0012
fHbp mutant 0024 = target: T4, fHbp mutant 0024
fHbp mutant 0018 = target: T5, fHbp mutant 0018
fHbp mutant 0014 = target: T6, fHbp mutant 0014
fHbp mutant 0015 = target: T7, fHbp mutant 0015
fHbp mutant 0017 = target: T8, fHbp mutant 0017
fHbp m000019 = target: T9, fHbp m000019

Binder | Kd (fHbp mutant 0016) | koff (fHbp mutant 0016) | kon (fHbp mutant 0016) | Kd [1] | koff [1] | kon [1] | Kd (fHbp mutant 0012) | koff (fHbp mutant 0012) | kon (fHbp mutant 0012) | Kd (fHbp mutant 0024) | koff (fHbp mutant 0024) | kon (fHbp mutant 0024) | Kd (fHbp mutant 0018) | koff (fHbp mutant 0018) | kon (fHbp mutant 0018) | Kd (fHbp mutant 0014) | koff (fHbp mutant 0014) | kon (fHbp mutant 0014) | Kd (fHbp mutant 0015) | koff (fHbp mutant 0015) | other results
B1 | 4.74 nM | 0.00131 s⁻¹ | 276800 ± 1380 M⁻¹ s⁻¹ | 5.15 nM | 0.000542 s⁻¹ | 105000 ± 1620 M⁻¹ s⁻¹ | 1.39 nM | 0.00126 s⁻¹ | 906000 ± 2710 M⁻¹ s⁻¹ | 1.48 nM | 0.000969 s⁻¹ | 655000 ± 3130 M⁻¹ s⁻¹ | 2.36 nM | 0.00101 s⁻¹ | 426800 ± 2190 M⁻¹ s⁻¹ | 1.57 nM | 0.00116 s⁻¹ | 736500 ± 3130 M⁻¹ s⁻¹ | 3.57 nM | 0.00129 s⁻¹ | kon (fHbp mutant 0015): 360000 ± 5970 M⁻¹ s⁻¹; Kd (fHbp mutant 0017): 2.98 nM; koff (fHbp mutant 0017): 0.000964 s⁻¹; kon (fHbp mutant 0017): 324100 ± 1980 M⁻¹ s⁻¹; Kd (fHbp m000019): 5.53 nM; koff (fHbp m000019): 0.00124 s⁻¹; kon (fHbp m000019): 224400 ± 1040 M⁻¹ s⁻¹
B2 | 0.69 nM | 0.000223 s⁻¹ | 323000 ± 3620 M⁻¹ s⁻¹ | 1.76 nM | 0.000238 s⁻¹ | 135000 ± 961 M⁻¹ s⁻¹ | 3.52 nM | 0.00661 s⁻¹ | 1.88e+06 ± 58600 M⁻¹ s⁻¹ | 0.369 nM | 0.000271 s⁻¹ | 734700 ± 2210 M⁻¹ s⁻¹ | 1.04 nM | 0.000558 s⁻¹ | 538300 ± 3080 M⁻¹ s⁻¹ | 2.11 nM | 0.00204 s⁻¹ | 964100 ± 5740 M⁻¹ s⁻¹ | 1.42 nM | 0.000862 s⁻¹ | kon (fHbp mutant 0015): 609000 ± 6530 M⁻¹ s⁻¹; Kd (fHbp mutant 0017): 4.23 nM; koff (fHbp mutant 0017): 0.00199 s⁻¹; kon (fHbp mutant 0017): 471400 ± 4100 M⁻¹ s⁻¹; Kd (fHbp m000019): 2.19 nM; koff (fHbp m000019): 0.00153 s⁻¹; kon (fHbp m000019): 698800 ± 3080 M⁻¹ s⁻¹

— PMC12319226 (Frontiers in Bioinformatics, 2025)
